# Test results taken from US20200292555.
# T1: Ac-DEVD-CHO
# T1 chain: DEVD
# Target: T1, Ac-DEVD-CHO
protein,measurement,value
"recombinant, purified active CASP10 (protein) VKTFLEALPQESWQNKHAGSNGNRATNGAPSLVSRGMQGASANTLNSETSTKRAAVYRMNRNHRGLCVIVNNHSFTSLKDRQGTHKDAEILSHVFQWLGFTVHIHNNVTKVEMEMVLQKQKCNPAHADGDCFVFCILTHGRFGAVYSSDEALIPIREIMSHFTALQCPRLAEKPKLFFIQACQGEEIQPSVSIEADALNPEQAPTSLQDSIPAEADFLLGLATVPGYVSFRHVEEGSWYIQSLCNHLKKLVPRMLKFLEKTMEIRGRKRTVWGAKQISATSLPTAISAQTPRPPMRRWSSVS","activity of recombinant, purified active CASP10 (500 nM; fluorometric AEVD-AMC substrate in MDA-MB-231 lysate)",DEVD-CHO ... (20 µM) inhibited the activity of CASP10
